Source: US20030203447A1 (XOMA TECHNOLOGY, published 2003)
Where a chain is given by its changes, count along the chain named. Values belong to the binder of their own block, whether it stands above or below them.

How the values were obtained:
[1] = target: T1, Ep-CAM on the surface of HT-29 human colorectal carcinoma cells (human, UniProt P16422 24-314); experiment: competition with 125I-labelled chimeric ING-1 on HT-29 cells
T1 construct: also called Epithelial Cell Adhesion Molecule; Ep-CAM-expressing HT-29 cells
T1 sequence: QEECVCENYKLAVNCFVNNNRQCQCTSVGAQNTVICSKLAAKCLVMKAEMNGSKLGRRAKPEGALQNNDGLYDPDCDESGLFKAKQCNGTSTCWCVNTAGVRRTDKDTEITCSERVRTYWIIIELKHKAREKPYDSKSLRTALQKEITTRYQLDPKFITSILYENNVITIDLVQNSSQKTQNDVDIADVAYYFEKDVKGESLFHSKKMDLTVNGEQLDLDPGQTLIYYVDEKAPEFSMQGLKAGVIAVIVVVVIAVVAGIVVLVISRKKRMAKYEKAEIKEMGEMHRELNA
Source text: (§1) Vectors constructed according to Example 6 encoding human engineered ING-1 light and heavy chain genes, for example, pING1937 (low risk human engineered ING-1) and pING1944 (low plus moderate risk human engineered ING-1) were linearized by XbaI and used to transfect serum-free adapted CHO—K1 followed by selection of G418-resistant transfectants. Protein was purified from shake flask culture supernatants by passage over a protein A column. To evaluate the binding activity of the produced immunoglobulin polypeptides, competition binding assays with the human carcinoma cell line HT-29 were performed. This colorectal carcinoma cell line expresses a molecule known as Ep-CAM on its surface. Ep-CAM is recognized by immunoglobulin polypeptides having the antigen binding specificity of the mouse-human chimeric ING-1 antibody produced by cell line HB 9812 as deposited with the ATCC.
(§2) HTG29 cells were grown to confluency (˜2×10⁵ cells/well) in 96 well plates. Mouse-human chimeric ING-1 was labeled with Na¹²⁵I (Iodo-gen®, Pierce). The competition conditions included in a 100 μl assay volume, 0.1 nM labeled mouse-human chimeric ING-1, 2-fold serial dilutions of unlabeled immunoglobulin polypeptides, for example, as produced by cells transfected with pING1937 and pING1944. […] Labeled cells were removed with NaOH and counted. […]

[2] = target: T1, Ep-CAM on the surface of HT-29 human …; experiment: competition binding on HT-29 cells
Source text: as §1, §2

[3] = target: T1, Ep-CAM on the surface of HT-29 human …; experiment: competition with iodinated low risk ING-1 on HT-29 cells

B1: human engineered (low risk) ING-1 (antibody, human IgG1, kappa)
VL: DIVMTQSALSNPVTLGESGSISCRSSKSLLHSNGITYLYWYLQKPGQSPQLLIYQMSNRASGVPDRFSSSGSGTDFTLKISRVEAEDVGVYYCAQNLELPRTFGQGTKLEMKRTVAAPSVFIFPPSDEQLKSGTASVVCLLNNFYPREAKVQWKVDNALQSGNSQESVTEQDSKDSTYSLSSTLTLSKADYEKHKVYACEVTHQGLSSPVTKSFNRGEC
VH: not shown
notes: It carries 6 low risk changes in VL and 13 low risk changes in VH; also called ING-1 (heMab); low risk human engineered ING-1
binding result [1]: binds

B4: modified ING-1 with low plus moderate risk light chain and low risk heavy chain (antibody, human IgG1, kappa)
VL: B1 VL with A8P, N11L, L15P, S18P
VH: not shown
binding result [3]: binds

B5: mouse-human chimeric ING-1 (antibody, human IgG1, kappa, V domains shown)
VH: QIQLVQSGPELKKPGETVKISCKASGYTFTKYGMNWVKQAPGKGLKWMGWINTYTEEPTYGDDFKGRFAFSLETSASTANLQINNLKSEDTATYFCARFGSAVDYWGQGTSVTVSS
VL: DIVMTQAAFSNPVTLGTSGSISCRSSKSLLHSNGITYLYWYLQKPGQSPQLLIYQMSNLASGVPDRFSSSGSGTDFTLRISRVEAEDVGVYYCAQNLELPRTFGGGTKLEMKR
notes: Variable regions of mouse antibody Br-1 with human constant regions; also called mouse-human chimeric ING-1 antibody produced by cell line HB 9812
binding result [1]: binds

Now from value to binder:

binding result [2]: binds
B2: human engineered (low plus moderate risk) ING-1 (antibody, human IgG1, kappa)
VL: B1 VL with A8P, N11L, L15P, S18P
VH: not shown
notes: Whole IgG built like pING1937 (human kappa and gamma-1 constant regions); It carries 10 low plus moderate risk changes in VL and 20 in VH; also called product of pING1944

binding result [3]: binds
B3: modified ING-1 with low risk light chain and low plus moderate risk heavy chain (antibody, human IgG1, kappa)
VL: B1 VL
VH: not shown
